The values below come from patent publication US20240239878A1 (SHANGHAI QILU PHARMACEUTICAL RESEARCH AND DEVELOPMENT CENTRE, published 2024).

The target in assay [1] is T1, human DLL1 (Sino Biological, Cat. No. 11635-H08H) (human, UniProt O00548 18-545).
T1 construct: also called family protein DLL1
T1 sequence: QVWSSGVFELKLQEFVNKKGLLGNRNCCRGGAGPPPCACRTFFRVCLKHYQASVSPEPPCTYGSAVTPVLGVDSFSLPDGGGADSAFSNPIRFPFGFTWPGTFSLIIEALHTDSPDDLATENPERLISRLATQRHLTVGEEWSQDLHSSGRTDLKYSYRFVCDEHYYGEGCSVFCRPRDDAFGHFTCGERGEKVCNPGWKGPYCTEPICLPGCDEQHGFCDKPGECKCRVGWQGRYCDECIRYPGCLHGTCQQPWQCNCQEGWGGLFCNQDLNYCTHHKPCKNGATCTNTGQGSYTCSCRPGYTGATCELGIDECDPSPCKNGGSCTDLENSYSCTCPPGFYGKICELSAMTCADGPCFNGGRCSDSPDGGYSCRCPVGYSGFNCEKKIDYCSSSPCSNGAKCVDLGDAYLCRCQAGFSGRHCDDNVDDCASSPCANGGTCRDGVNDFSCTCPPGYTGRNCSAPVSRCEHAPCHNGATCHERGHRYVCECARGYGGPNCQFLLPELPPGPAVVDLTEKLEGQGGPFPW
The assay can be described thus: ELISA, plate coated with human DLL1 at 1 ug/mL, OD 450nm. On the procedure: (§1) The antigenic proteins human DLL1 (SinoBiological, cat. No. 11635-H08H) or human DLL4 (SinoBiological, cat. No. 10171-H08H) were dissolved in 1×PBS at a concentration of 1 μg/mL. […] The antigen was washed three times with PBST, 300 μL/well. The antigen was blocked with 1% BSA (in PBST), 200 µL/well, and incubated at 37° C. for 1.5 hours.
(§2) Antibodies to be tested were diluted with 1% BSA (in PBS) at a starting concentration of 100 nM, downwards by a 10-fold gradient for 7 concentrations. The plates were washed three times with PBST, 300 μL/well. The diluted antibody was added to an ELISA plate at 100 μL/well and incubated at room temperature for 2 hours. The antibodies were washed three times with PBST, 300 μL/well. The secondary antibodies (goat anti-human IgG Fc for DLL4 (HRP), 1:20000 dilution; HRP goat anti-mouse IgG (H+L) for DLL1, 1:10000 dilution) were diluted with 1% BSA in PBST. The diluted secondary antibodies were added to the ELISA plate at 100 μL/well and incubated at room temperature for 1 hour. The plates were washed 6 times with PBST, 300 μL/well. The developing solution (TMA and TMB 1:1 mixed) was prepared. The developing solution was added to the plate, 100 μL/well, and incubated in the dark for 5 min. 50 μL of ELISA stop solution was added to the plate and shaken well.
For orientation: ELISA stands for enzyme-linked immunosorbent assay.

Assay [2] concerns the target T2, human DLL4 (Sino Biological, Cat. No. 10171-H08H) (human, UniProt Q9NR61 27-529).
T2 construct: also called family protein DLL4
The assay can be described thus: ELISA, plate coated with human DLL4 at 1 ug/mL, OD 450nm. As to the method:
as §1, §2

Assay [3] concerns the target T3, human DLL3 on SHP-77 cells (human, UniProt Q9NYJ7 27-618).
T3 construct: also called DLL3-expressing cells (SHP-77)
T3 sequence: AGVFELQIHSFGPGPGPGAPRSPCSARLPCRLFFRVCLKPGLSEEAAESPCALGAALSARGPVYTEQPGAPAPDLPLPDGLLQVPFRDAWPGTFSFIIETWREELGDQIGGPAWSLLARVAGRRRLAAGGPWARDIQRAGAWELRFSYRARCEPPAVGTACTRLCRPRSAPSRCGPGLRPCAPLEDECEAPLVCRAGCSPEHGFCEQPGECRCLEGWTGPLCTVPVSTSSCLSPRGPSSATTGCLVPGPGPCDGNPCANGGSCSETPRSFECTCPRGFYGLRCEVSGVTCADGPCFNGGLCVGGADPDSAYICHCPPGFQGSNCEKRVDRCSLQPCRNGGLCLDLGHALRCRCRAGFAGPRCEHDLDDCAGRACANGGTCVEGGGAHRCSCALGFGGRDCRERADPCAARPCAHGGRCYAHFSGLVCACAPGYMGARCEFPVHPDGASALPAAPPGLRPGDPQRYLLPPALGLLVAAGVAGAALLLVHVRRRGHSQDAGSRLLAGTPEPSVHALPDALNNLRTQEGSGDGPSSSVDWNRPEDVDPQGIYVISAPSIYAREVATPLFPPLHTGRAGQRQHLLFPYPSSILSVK
The assay can be described thus: flow cytometry, SHP-77 cells. The method in brief: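 Trypsinised SHP-77 cells in 1% BSA/PBS were incubated with antibody (100 nM top, 10-fold steps, 7 concentrations) for 1 h at 4° C. Bound antibody was detected with goat anti-human IgG Fc-PE for 0.5 h at 4° C and read as PE mean fluorescence intensity. EC50 and Top MFI were derived from the curves.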
(Flow cytometry measures light scatter and fluorescence of single cells or particles in a stream.)

T2 sequence (Q9NR61 27-529 limits assumed): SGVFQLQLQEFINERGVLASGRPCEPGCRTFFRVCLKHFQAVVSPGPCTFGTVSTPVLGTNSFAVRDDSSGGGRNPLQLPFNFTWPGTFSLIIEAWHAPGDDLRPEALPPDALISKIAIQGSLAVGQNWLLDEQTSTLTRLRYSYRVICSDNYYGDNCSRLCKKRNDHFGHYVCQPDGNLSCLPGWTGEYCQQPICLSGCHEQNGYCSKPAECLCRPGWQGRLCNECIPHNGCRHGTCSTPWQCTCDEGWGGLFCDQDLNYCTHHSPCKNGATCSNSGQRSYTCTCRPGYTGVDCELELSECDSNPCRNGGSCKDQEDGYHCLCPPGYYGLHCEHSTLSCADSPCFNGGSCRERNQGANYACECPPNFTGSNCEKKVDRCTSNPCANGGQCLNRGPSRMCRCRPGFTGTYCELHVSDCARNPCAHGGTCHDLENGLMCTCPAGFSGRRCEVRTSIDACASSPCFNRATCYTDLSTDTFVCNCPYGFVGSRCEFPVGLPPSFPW

B1: H2-39E2D11 mouse hybridoma-derived humanized anti-DLL3 antibody (antibody, V domains shown)
VH: QVQLVQSGAEVKKPGASVKVSCKASGYTFISYWITWVRQAPGQGLEWMGDIYPGSGSTTNYNEKFKSRVTMTRDTSTSTVYMELSSLRSEDTAVYYCARETTVGGAYAMDYWGQGTLVTVSS
VL: EIVLTQSPATLSLSPGERATLSCRASQSINNNLHWYQQKPGQAPRLLIKYVSQSISGIPARFSGSGSGTDFTLTISSLEPEDFAVYYCQQTNSWPLTFGGGTKLEIK
The term EC50 denotes the concentration that produces a half-maximal response. Read a low EC50 as an effect from little substance. Take B1: the binding result in assay [1] and in assay [2] was “no binding (tested: 100 nM)” each time. In assay [3], this molecule yielded an EC50 of 1.12 nM. Besides, the “Top MFI” value in assay [3] was 1570 MFI.
